Assay results from paper PMC3627576 (Nucleic Acids Research, 2013).

What was measured:
Pab-Pol D = target: T1, Pab-Pol D (Pyrococcus abyssi, UniProt Q9V2F4); experiment: primer extension with a single dNTP, denaturing gel; type: biochemical; conditions: exo+ enzyme; template U at +1; otherwise same
T1 sequence (Q9V2F4 1-954): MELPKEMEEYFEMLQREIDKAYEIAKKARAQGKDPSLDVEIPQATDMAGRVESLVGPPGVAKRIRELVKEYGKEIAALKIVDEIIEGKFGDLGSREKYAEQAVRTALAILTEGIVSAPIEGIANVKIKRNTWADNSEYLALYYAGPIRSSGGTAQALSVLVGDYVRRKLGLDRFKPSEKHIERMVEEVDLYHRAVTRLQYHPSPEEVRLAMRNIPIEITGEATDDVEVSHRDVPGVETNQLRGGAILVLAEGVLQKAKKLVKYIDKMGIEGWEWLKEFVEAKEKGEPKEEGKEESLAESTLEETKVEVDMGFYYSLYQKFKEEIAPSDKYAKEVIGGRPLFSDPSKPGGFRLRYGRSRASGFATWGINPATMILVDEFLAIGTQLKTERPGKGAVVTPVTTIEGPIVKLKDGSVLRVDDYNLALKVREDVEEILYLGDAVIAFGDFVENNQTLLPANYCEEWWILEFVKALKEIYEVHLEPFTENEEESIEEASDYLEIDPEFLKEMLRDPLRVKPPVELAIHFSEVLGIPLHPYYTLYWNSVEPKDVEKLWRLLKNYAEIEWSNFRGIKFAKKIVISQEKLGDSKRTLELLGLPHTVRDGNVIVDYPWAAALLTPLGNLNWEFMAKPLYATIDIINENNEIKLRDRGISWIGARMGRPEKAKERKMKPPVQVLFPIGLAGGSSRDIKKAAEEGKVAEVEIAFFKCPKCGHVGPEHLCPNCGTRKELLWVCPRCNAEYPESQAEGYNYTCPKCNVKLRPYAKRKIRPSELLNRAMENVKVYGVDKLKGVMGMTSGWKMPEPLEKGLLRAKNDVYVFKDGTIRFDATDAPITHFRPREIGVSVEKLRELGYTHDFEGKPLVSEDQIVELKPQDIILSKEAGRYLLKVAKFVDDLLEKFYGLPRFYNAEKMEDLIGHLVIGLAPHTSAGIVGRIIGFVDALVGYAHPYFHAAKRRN
T1 sequence (Q9V2F4 1140-1455): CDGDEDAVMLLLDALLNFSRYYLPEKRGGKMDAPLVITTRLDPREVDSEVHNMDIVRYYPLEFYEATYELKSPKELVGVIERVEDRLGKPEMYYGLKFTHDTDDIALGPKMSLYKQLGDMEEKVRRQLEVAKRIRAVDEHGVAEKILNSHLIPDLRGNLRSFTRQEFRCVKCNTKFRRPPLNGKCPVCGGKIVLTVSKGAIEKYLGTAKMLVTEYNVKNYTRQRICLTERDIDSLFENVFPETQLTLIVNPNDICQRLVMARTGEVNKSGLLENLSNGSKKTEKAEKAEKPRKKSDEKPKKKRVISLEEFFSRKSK
T1 sequence (Q9V2F3 1-619 partner): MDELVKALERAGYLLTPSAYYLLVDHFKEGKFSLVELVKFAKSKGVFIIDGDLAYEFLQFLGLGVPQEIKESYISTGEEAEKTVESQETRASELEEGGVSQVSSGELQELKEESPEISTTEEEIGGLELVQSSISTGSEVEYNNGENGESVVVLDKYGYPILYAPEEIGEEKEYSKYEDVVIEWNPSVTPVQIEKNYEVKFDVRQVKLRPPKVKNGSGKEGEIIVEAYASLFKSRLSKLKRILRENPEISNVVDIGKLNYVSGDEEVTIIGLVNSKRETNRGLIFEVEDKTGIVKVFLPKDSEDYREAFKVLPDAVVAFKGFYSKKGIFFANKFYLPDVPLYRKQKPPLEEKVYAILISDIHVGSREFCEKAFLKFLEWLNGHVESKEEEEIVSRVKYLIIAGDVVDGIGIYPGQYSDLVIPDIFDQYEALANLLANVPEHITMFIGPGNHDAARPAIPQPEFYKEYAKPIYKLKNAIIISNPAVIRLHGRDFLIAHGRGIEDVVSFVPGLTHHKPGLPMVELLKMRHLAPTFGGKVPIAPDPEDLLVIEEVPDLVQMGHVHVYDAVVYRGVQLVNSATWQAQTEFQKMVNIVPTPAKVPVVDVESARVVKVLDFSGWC

[1] = target: Pfu-Pol D (family-D DNA polymerase, DP1 small + DP2 large subunits) (Pyrococcus furiosus, UniProt P81409;P81412 1-1263;1-613); experiment: fluorescence anisotropy
Sequence of Pfu-Pol D (family-D DNA polymerase, DP1 small + DP2 large subunits) (P81409 whole entry, chain 1 of 2): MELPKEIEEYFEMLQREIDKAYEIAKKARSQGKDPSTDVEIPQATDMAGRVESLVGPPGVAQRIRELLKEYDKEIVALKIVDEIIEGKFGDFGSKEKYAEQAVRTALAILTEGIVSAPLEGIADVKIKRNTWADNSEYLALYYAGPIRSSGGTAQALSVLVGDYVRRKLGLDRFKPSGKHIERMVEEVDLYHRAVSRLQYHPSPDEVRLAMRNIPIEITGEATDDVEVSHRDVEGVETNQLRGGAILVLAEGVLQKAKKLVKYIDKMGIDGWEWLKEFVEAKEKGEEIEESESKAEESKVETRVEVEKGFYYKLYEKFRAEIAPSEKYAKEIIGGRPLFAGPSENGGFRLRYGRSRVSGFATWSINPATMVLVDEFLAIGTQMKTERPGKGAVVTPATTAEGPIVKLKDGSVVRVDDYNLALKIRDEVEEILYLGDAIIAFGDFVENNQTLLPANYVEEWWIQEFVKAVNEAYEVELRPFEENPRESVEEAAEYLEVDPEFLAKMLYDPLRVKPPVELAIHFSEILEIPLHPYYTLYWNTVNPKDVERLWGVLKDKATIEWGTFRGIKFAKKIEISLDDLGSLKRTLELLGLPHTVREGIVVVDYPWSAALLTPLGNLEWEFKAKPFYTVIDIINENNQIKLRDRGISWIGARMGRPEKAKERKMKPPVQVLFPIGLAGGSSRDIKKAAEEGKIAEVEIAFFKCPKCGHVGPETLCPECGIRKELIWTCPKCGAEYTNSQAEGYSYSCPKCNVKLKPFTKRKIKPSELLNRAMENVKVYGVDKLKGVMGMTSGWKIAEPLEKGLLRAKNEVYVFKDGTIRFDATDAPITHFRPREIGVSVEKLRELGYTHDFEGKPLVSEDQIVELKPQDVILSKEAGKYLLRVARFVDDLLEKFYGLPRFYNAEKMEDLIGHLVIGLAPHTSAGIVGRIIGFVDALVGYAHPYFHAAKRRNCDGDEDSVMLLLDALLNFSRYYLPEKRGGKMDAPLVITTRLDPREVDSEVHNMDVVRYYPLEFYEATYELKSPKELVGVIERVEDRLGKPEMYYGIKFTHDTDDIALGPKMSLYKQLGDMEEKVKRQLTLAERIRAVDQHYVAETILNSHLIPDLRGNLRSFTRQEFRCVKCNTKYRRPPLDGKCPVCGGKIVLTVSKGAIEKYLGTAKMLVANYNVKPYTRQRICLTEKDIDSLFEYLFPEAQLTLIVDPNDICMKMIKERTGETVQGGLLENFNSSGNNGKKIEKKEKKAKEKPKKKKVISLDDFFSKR
Sequence of Pfu-Pol D (family-D DNA polymerase, DP1 small + DP2 large subunits) (P81412 whole entry, chain 2 of 2): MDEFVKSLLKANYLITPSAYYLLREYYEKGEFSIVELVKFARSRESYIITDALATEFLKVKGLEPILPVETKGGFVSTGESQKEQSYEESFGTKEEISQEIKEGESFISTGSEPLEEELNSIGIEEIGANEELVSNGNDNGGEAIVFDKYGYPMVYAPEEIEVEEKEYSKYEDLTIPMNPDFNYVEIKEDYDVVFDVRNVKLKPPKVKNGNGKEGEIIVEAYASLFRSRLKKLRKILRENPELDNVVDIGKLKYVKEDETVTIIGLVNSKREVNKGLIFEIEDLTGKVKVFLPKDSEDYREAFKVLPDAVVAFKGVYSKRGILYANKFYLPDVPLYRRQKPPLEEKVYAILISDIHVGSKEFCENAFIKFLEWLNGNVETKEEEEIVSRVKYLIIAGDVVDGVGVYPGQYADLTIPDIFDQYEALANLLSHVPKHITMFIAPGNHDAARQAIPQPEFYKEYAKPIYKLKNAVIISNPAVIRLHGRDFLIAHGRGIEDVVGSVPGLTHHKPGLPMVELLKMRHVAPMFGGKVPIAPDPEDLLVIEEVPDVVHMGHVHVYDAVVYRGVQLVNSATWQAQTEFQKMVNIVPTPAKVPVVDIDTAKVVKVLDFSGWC

`Nc1ncnc2c1ncn2[C@H]1C[C@H](O)[C@@H](COP(=O)(O)OP(=O)(O)OP(=O)(O)O)O1` [dATP] was tested, and the “primer extension with a single dNTP, denaturing gel” value (Pab-Pol D) was “Pab-Pol D exo^+ only incorporated adenine opposite uracil”.

For TTTCTGGTTCCAGCTGGACCATTCGCCTATAGGACCTATT (ssDNA) [single strand, X=T], the Kd [1] was 6 ± 1.6 nM.

B1: primer-template -1, X=T (dsDNA)
DNA 1: TTTCTGGTTCCAGCTGGACCATTCGCCTATAGGACCTATT
DNA 2: AATAGGTCCTATAGGCGAATGGTCCAGCTGGAA
B1 was tested, and the Kd [1] was 9.3 ± 0.6 nM.

B2: primer-template -1, X=U (dsDNA)
DNA 1: TTTCTGGTUCCAGCTGGACCATTCGCCTATAGGACCTATT
DNA 2: AATAGGTCCTATAGGCGAATGGTCCAGCTGGAA
modifications: deoxyuridine at template position 9
Work on B2 yielded a Kd [1] of 5.2 ± 1.3 nM.

With TTTCTGGTUCCAGCTGGACCATTCGCCTATAGGACCTATT (ssDNA, deoxyuridine at position 9) [single strand, X=U] the Kd [1] was 3.4 ± 0.3 nM.

B3: primer-template +1, X=T (dsDNA)
DNA 1: TTTCTGGTTCCAGCTGGACCATTCGCCTATAGGACCTATT
DNA 2: AATAGGTCCTATAGGCGAATGGTCCAGCTGG
In the case of B3, the Kd [1] is reported as 9.1 ± 1.5 nM.

B4: primer-template +1, X=U (dsDNA)
DNA 1: TTTCTGGTUCCAGCTGGACCATTCGCCTATAGGACCTATT
DNA 2: AATAGGTCCTATAGGCGAATGGTCCAGCTGG
modifications: deoxyuridine at template position 9
B4 gave a Kd [1] of 5.8 ± 0.4 nM.
